Earlier results on four substances are cited in publication PMC3433420.

Where two headings read alike, the source gives them in different places.

Some targets named below: TNS3 (Homo sapiens) (UniProt Q68CZ2); PIK3R3-C (Homo sapiens) (UniProt Q92569); ZAP70-C (Homo sapiens) (UniProt P43403); PIK3R1-NC (Homo sapiens) (UniProt P27986); VAV2 (Homo sapiens) (UniProt P52735); HCK (Homo sapiens) (UniProt P08631); VAV1 (Homo sapiens) (UniProt P15498); GRB7 (Homo sapiens) (UniProt Q14451); PLCG1-C (Homo sapiens) (UniProt P19174); NCK1 (Homo sapiens) (UniProt P16333); SHC3 (Homo sapiens) (UniProt Q92529); PIK3R1-N (Homo sapiens) (UniProt P27986); PTK6 (Homo sapiens) (UniProt Q13882); PLCG1-NC (Homo sapiens) (UniProt P19174); CRK (Homo sapiens) (UniProt P46108); SHC1 (Homo sapiens) (UniProt P29353); PIK3R2-C (Homo sapiens) (UniProt O00459); SLA2 (Homo sapiens) (UniProt Q9H6Q3); SLA (Homo sapiens) (UniProt Q13239); SH2B2 (Homo sapiens) (UniProt O14492); PIK3R3-N (Homo sapiens) (UniProt Q92569); PIK3R2-NC (Homo sapiens) (UniProt O00459); SRC (Homo sapiens) (UniProt P12931); PIK3R2-N (Homo sapiens) (UniProt O00459); TXK (Homo sapiens) (UniProt P42681); TENC1 (Homo sapiens) (UniProt Q63HR2); VAV3 (Homo sapiens) (UniProt Q9UKW4); BLK (Homo sapiens) (UniProt P51451); PLCG2-NC (Homo sapiens) (UniProt P16885).

What all share (settings): cited from earlier work
Series [1] deals with SYK-NC (Homo sapiens) (UniProt P43405).
Series [2] concerns the target RASA1-N (Homo sapiens) (UniProt P20936).
In series [3] the target is ABL2 (Homo sapiens) (UniProt P42684).
ABL2 (Homo sapiens), sequence (P42684 168-268): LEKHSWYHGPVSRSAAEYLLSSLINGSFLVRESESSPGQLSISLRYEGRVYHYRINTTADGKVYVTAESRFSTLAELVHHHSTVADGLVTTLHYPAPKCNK
The target in series [4] is NCK2 (Homo sapiens) (UniProt O43639).
NCK2 (Homo sapiens), sequence (O43639 280-380): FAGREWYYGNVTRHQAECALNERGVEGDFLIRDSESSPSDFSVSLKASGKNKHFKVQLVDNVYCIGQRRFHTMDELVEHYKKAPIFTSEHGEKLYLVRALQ
Series [5] addresses CRKL (Homo sapiens) (UniProt P46109).
The target of series [6] is BCAR3 (Homo sapiens) (UniProt O75815).
BCAR3 (Homo sapiens), sequence (O75815 149-258): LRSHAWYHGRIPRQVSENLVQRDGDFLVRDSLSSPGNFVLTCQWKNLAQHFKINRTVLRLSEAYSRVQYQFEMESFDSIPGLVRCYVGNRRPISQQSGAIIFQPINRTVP
In series [7] the target is ABL1 (Homo sapiens) (UniProt P00519).
ABL1 (Homo sapiens), sequence (P00519 122-222): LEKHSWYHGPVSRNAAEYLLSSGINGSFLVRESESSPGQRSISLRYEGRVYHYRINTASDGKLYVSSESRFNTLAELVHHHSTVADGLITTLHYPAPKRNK
Series [8] has as its target PIK3R3-NC (Homo sapiens) (UniProt Q92569).
For series [9], the target named is SHC1-PTB (Homo sapiens) (UniProt P29353).
SHC1-PTB (Homo sapiens), sequence (P29353 483-583): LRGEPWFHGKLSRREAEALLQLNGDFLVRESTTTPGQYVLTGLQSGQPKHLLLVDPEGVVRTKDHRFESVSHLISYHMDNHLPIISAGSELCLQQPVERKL
Series [10] deals with NCK2 (Homo sapiens) (UniProt O43639). The source holds these as a separate data set.
The target in series [11] is SHC1-PTB (Homo sapiens) (UniProt P29353). This is another data set of the same source.
Series [12] concerns the target ABL1 (Homo sapiens) (UniProt P00519). The source holds these as a separate data set.
The target of series [13] is ABL2 (Homo sapiens) (UniProt P42684). The source holds these as a separate data set.
Series [14] has the same target. The source holds these as a separate data set.
The target in series [15] is PIK3R3-NC (Homo sapiens) (UniProt Q92569). This is another data set of the same source.
Series [16] addresses RASA1-N (Homo sapiens) (UniProt P20936). The source holds these as a separate data set.
In series [17] the target is NCK2 (Homo sapiens) (UniProt O43639). This is another data set of the same source.
The target in series [18] is CRKL (Homo sapiens) (UniProt P46109). The source holds these as a separate data set.
CRKL (Homo sapiens), sequence (P46109 9-107): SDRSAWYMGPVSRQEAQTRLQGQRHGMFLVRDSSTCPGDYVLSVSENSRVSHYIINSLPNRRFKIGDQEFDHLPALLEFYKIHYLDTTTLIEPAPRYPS
The target in series [19] is PIK3R3-NC (Homo sapiens) (UniProt Q92569). This is another data set of the same source.
Series [20] concerns the target SHC1-PTB (Homo sapiens) (UniProt P29353). This is another data set of the same source.
Series [21] addresses BCAR3 (Homo sapiens) (UniProt O75815). The source holds these as a separate data set.
Series [22] addresses SYK-NC (Homo sapiens) (UniProt P43405). The source holds these as a separate data set.
Series [23] deals with ABL2 (Homo sapiens) (UniProt P42684). This is another data set of the same source.

RASA1-N (Homo sapiens), sequence (P20936 176-446): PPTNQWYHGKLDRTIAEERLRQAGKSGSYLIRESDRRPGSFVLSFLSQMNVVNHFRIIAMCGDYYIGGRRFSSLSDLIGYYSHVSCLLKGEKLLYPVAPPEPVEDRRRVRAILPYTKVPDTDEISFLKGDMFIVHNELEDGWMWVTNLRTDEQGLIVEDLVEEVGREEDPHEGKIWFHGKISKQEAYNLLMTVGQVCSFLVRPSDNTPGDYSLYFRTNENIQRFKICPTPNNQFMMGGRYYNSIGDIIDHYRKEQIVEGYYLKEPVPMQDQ
ZAP70-C (Homo sapiens), sequence (P43403 5-259): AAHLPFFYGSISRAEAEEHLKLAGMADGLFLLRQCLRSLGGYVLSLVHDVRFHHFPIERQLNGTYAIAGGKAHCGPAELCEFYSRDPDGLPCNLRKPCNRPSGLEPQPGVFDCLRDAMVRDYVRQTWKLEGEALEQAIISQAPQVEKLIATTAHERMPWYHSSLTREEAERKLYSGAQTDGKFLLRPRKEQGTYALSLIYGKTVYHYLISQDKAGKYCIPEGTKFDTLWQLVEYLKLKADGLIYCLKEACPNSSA
TNS3 (Homo sapiens), sequence (Q68CZ2 1167-1287): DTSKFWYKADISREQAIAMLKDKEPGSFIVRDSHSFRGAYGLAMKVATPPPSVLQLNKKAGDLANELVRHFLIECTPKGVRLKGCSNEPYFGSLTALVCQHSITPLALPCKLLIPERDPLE
BLK (Homo sapiens), sequence (P51451 119-225): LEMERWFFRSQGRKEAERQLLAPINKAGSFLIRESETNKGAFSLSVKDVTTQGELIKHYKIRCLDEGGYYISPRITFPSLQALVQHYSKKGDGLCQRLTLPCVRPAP
SLA (Homo sapiens), sequence (Q13239 79-180): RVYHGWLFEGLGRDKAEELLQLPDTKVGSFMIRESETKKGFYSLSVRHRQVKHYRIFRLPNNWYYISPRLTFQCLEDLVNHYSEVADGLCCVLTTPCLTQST
SHC3 (Homo sapiens), sequence (Q92529 494-594): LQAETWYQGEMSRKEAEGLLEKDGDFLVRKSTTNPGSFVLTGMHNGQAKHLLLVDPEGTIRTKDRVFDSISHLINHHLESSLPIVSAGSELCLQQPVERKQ
PIK3R2-N (Homo sapiens), sequence (O00459 325-721): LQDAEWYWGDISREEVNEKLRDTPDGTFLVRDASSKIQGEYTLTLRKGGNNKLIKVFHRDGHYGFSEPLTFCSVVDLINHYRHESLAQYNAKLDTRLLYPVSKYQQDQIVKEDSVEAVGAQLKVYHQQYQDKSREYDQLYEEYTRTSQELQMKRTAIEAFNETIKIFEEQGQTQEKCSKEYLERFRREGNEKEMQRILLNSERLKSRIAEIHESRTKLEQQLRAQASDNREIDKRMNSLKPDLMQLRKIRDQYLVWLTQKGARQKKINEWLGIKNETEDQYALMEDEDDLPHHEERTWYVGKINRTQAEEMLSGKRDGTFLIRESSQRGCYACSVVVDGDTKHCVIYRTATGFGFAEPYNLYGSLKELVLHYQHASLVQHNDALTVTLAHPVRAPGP
PIK3R2-NC (Homo sapiens), sequence (O00459 325-721): as above
PIK3R2-C (Homo sapiens), sequence (O00459 325-721): as above
HCK (Homo sapiens), sequence (P08631 139-246): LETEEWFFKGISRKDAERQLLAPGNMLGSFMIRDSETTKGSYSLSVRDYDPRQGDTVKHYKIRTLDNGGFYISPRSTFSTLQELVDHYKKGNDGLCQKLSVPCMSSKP
PIK3R1-N (Homo sapiens), sequence (P27986 328-723): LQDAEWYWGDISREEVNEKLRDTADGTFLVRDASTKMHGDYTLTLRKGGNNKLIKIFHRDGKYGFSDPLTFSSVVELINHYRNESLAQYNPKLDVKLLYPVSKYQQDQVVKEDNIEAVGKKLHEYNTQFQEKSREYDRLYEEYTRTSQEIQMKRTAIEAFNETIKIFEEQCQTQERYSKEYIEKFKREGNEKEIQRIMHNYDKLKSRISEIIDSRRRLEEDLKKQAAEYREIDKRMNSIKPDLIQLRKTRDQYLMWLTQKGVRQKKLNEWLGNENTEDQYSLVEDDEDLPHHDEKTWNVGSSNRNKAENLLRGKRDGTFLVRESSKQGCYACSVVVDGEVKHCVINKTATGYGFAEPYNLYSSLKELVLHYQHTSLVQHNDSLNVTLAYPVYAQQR
SLA2 (Homo sapiens), sequence (Q9H6Q3 89-196): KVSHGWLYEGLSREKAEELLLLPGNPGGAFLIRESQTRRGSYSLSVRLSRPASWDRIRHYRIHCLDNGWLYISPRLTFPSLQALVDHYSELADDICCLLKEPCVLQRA
VAV1 (Homo sapiens), sequence (P15498 666-770): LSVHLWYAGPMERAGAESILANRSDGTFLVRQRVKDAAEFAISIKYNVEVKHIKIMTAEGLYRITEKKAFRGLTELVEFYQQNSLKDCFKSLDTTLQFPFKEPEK

For …pYAAMGACP, the apparent Kd (screen) in the series with TNS3 (Homo sapiens) is 1500 nM; in the series with PIK3R3-C (Homo sapiens) it was 499 nM; in the series with ZAP70-C (Homo sapiens), 1440 nM; with SYK-NC (Homo sapiens) [1], 596 nM; with PIK3R1-NC (Homo sapiens), 55 nM; with VAV2 (Homo sapiens), 300 nM. Besides, the apparent Kd (screen) with HCK (Homo sapiens) was 581 nM; with VAV1 (Homo sapiens), 2000 nM; in the series with RASA1-N (Homo sapiens) [2], 906 nM; in the series with GRB7 (Homo sapiens), 979 nM; in the series with PLCG1-C (Homo sapiens) it was 689 nM; with NCK1 (Homo sapiens), 208 nM. The apparent Kd (screen) in the series with ABL2 (Homo sapiens) [3] is 147 nM; with SHC3 (Homo sapiens), 636 nM; in the series with NCK2 (Homo sapiens) [4], 550 nM; with PIK3R1-N (Homo sapiens), 528 nM; with PTK6 (Homo sapiens), 440 nM; with PLCG1-NC (Homo sapiens) it was 720 nM. The apparent Kd (screen) with CRKL (Homo sapiens) [5] was 435 nM; with CRK (Homo sapiens), 264 nM; with SHC1 (Homo sapiens) it was 595 nM; with BCAR3 (Homo sapiens) [6], 2000 nM; with PIK3R2-C (Homo sapiens), 926 nM; in the series with ABL1 (Homo sapiens) [7] it was 2000 nM. Further, the apparent Kd (screen) with SLA2 (Homo sapiens) was 2000 nM; with SLA (Homo sapiens), 2000 nM; with SH2B2 (Homo sapiens), 2000 nM; with PIK3R3-N (Homo sapiens), 499 nM; with PIK3R2-NC (Homo sapiens), 78 nM; with SRC (Homo sapiens), 1500 nM. Further, the apparent Kd (screen) with PIK3R2-N (Homo sapiens) was 120 nM; with PIK3R3-NC (Homo sapiens) [8], 14 nM; in the series with TXK (Homo sapiens), 1670 nM; in the series with TENC1 (Homo sapiens), 2000 nM; with VAV3 (Homo sapiens), 1540 nM.

On to …pYHNASNGPd, for which the apparent Kd (screen) in the series with SHC1-PTB (Homo sapiens) [9] is 717 nM; with NCK2 (Homo sapiens) [10], 2000 nM; with SHC1-PTB (Homo sapiens) [11] it was 277 nM; in the series with ABL1 (Homo sapiens) [12] it was 1820 nM; with ABL2 (Homo sapiens) [13] it was 755 nM; with ABL2 (Homo sapiens) [14], 35 nM. Further, the apparent Kd (screen) with PIK3R3-NC (Homo sapiens) [15] is 2000 nM.

Take …pYSEAKTPI: the apparent Kd (screen) is 953 nM with RASA1-N (Homo sapiens) [16]; 2000 nM in the series with NCK2 (Homo sapiens) [17]; 1760 nM in the series with CRKL (Homo sapiens) [18]; 2000 nM with PIK3R3-NC (Homo sapiens) [19]; 2000 nM with SHC1-PTB (Homo sapiens) [20]; 1780 nM with BCAR3 (Homo sapiens) [21]. Also, the apparent Kd (screen) in the series with SYK-NC (Homo sapiens) [22] is 923 nM; with ABL2 (Homo sapiens) [23] it was 71 nM.

For …pYSEDPTVPd, the apparent Kd (screen) in the series with BLK (Homo sapiens) was 763 nM; with PLCG2-NC (Homo sapiens), 1060 nM.
